Patent US9644034B2, “Anti-RSPO2 antibodies and uses thereof” (OncoMed Pharmaceuticals, Inc., priority 2011, dated 2017)
Each block holds one molecule with its values, some of them ahead of it.

Legend:
human RSPO1 [1] = target: T1, human RSPO1 (Homo sapiens, UniProt Q2MKA7); assay: FACS screening of hybridoma supernatants on HEK-293 cells expressing FLAG-RSPO1furin-CD4TM-GFP; assay type: binding
T1 construct: followed by the two furin-like domains of RSPO1 (aa 34-135); expressed in transfected cells; host or cells: HEK-293
Text: Antibodies were generated against recombinant human RSPO1 protein amino acids 31-263 (R&D Systems, Minneapolis, Minn.). Mice (n=3) were immunized with RSPO1 protein using standard techniques. Sera from individual mice were screened against RSPO1 approximately 70 days after initial immunization using FACS analysis. The animal with the highest antibody titer was selected for final antigen boost after which spleen cells were isolated for hybridoma production. SP2/0 cells were used as fusion partners for the mouse spleen cells. Hybridoma cells were plated at 1 cell per well in 96 well plates, and the supernatants were screened against human RSPO1 by FACS analysis.
For FACS screening of anti-RSPO1 antibodies a chimeric fusion protein enabling cell surface expression of the N-terminal furin-like domains of human RSPO1 was constructed.
HEK-293 cells were transfected with FLAG-RSPOlfurin-CD4TM-GFP. After 48 hours, transfected cells were suspended in ice cold PBS containing 2% FBS and heparin and incubated on ice in the presence of 50 μl of hybridoma supernatants for 30 minutes. A second incubation with 100 μl PE-conjugated […] secondary antibody was performed to detect cells bound by antibody. Cells were incubated with an anti-FLAG antibody (Sigma-Aldrich, St. Louis, Mo.) as a positive control and an anti-PE antibody as a negative control. The cells were analyzed on a FACSCalibur instrument (BD Biosciences, San Jose, Calif.) and the data was processed using FlowJo software.

[2] = test system: RSPO1-induced β-catenin signaling; assay: TOPflash luciferase assay in HEK-293 cells, Wnt3a plus human RSPO1; assay type: cell-based; settings: Wnt3a 5 ng/ml, RSPO1 10 ng/ml; antibodies 10 to 0.625 μg/ml
Description: HEK-293 cells were transfected with a 6×TCF-luciferase reporter vector (TOPflash, Millipore, Billerica, Mass.). After 24-48 hrs, the transfected HEK-293 cells were incubated with a combination of Wnt3a (5 ng/ml) and human RSPO1 (10 ng/ml, R&D BioSystems) in the presence of anti-RSPO1 antibodies 89M2, 89M4, 89M5, 89M7, 89M19, and 89M25, or 2 irrelevant control antibodies 254M14 and 254M26 (2-fold dilutions at 10 μg/ml to 0.625 μg/ml). The cells were incubated for 16 hours and luciferase activity was measured using Steady-Glo® Luciferase Assay System according to the manufacturer's instructions (Promega, Madison, Wis.).

binding of RSPO1 to LGR5 = target: T2, binding of RSPO1 to LGR5 (Homo sapiens, UniProt Q2MKA7); assay: FACS: blocking of soluble RSPO1-Fc binding to LGR5 on HEK-293 cells; settings: RSPO1-Fc 10 μg/ml, antibodies 10 μg/ml
T2 construct: full-length human RSPO1, RSPO2, RSPO3 and RSPO4 were ligated in-frame to a human Fc region; made in house; host or cells: RSPO1-Fc: insect cells (baculovirus); LGR5 construct: transiently transfected HEK-293
Description: HEK-293 cells were transiently transfected with the FLAG-LGR5-CD4TM-GFP construct (previously described in Example 2). After 48 hours, transfected cells were suspended in ice cold PBS containing 2% FBS and heparin and incubated on ice in the presence of RSPO1-Fc protein (10 μg/ml) and antibodies 89M2, 89M4, 89M5, 89M7, 89M19 or 89M25 (10 μg/ml). A second incubation with 100 μl PE-conjugated anti-human Fc secondary antibody was performed to detect cells bound by the RSPO1-Fc fusion protein. The cells were analyzed on a FACSCalibur instrument (BD Biosciences, San Jose, Calif.) and the data was processed using FlowJo software.

OV19 ovarian tumor cells = assay: OV19 ovarian tumor xenograft growth in NOD/SCID mice; assay type: in vivo; settings: day 35, vs control antibody; antibodies 15 mg/kg once a week, intraperitoneal
Description: Dissociated OV19 ovarian tumor cells (1×10^5cells) were injected in the mammary fat pads of 6-8 week old NOD/SCID mice. Tumors were allowed to grow for 45 days until they reached an average volume of 134 mm^3. The mice were randomized (n=10 per group) and treated with anti-RSPO1 antibody 89M5, 89M25, taxol, a combination of 89M5 and taxol, a combination of 89M25 and taxol, or control antibody 1B7.11. Antibodies were dosed at 15 mg/kg once a week, and taxol was dosed at […] once a week. Administration of the antibodies and taxol was performed via injection into the intraperitoneal cavity. Tumor growth was monitored and tumor volumes were measured with electronic calipers at the indicated time points. Data are expressed as mean±S.E.M.

[3] = test system: PN31 pancreatic tumor cells; assay: PN31 pancreatic tumor xenograft growth in NOD/SCID mice; assay type: in vivo; settings: antibodies 15 mg/kg once a week, intraperitoneal
Description: Dissociated PN31 pancreatic tumor cells (1×10^5cells) were injected subcutaneously into the flanks of 6-8 week old NOD/SCID mice. Tumors were allowed to grow for 61 days until they reached an average volume of 120 mm^3. The mice were randomized (n=10 per group) and treated with anti-RSPO1 antibody 89M5, anti-RSPO2 antibody 130M23, gemcitabine, a combination of 89M5 and gemcitabine, a combination of 130M23 and gemcitabine, or control antibody 1B7.11. Antibodies were dosed at 15 mg/kg once a week, and gemcitabine was dosed at […] once a week. Administration of the antibodies and gemcitabine was performed via injection into the intraperitoneal cavity. Tumor growth was monitored and tumor volumes were measured with electronic calipers at specific time points. Data are expressed as mean±S.E.M.

human RSPO1 [4] = target: T1, human RSPO1; assay: FACS binding of 89M5 and humanized 89M5 to HEK293 cells expressing FLAG-RSPO1furin-CD4TM-GFP; settings: five-fold serial dilutions
Description: HEK293 cells were transiently transfected with an expression vector encoding FLAG-RSPO1furin-CD4TM-GFP. As described in Example 5, FLAG-RSPO1furin-CD4TM-GFP is a chimeric fusion protein enabling cell surface expression of the N-terminal furin-like domains of human RSPO1. FLAG-RSPO1 furin-CD4TM-GFP transfected cells were incubated in the presence of anti-RSPO1 antibody 89M5 or humanized anti-RSPO1 antibody h89M5-H2L2. Five-fold serial dilutions of each antibody were examined for their ability to bind to the RSPO1 expressing cells. The cells were stained with Phycoerythrin conjugated anti-IgG to reveal bound antibody. The cells were analyzed on a FACSCalibur instrument (BD Biosciences, San Jose, Calif.) and the data was processed using FlowJo software.

human RSPO2 = target: T3, human RSPO2 (Homo sapiens, UniProt Q6UXX9); assay: FACS binding of 130M23 and humanized 130M23 to HEK293 cells expressing FLAG-RSPO2furin-CD4TM-GFP; settings: five-fold serial dilutions
T3 construct: followed by the furin-like domains of RSPO2 (aa 31-146); expressed in transfected cells; host or cells: HEK-293
Description: HEK293 cells were transiently transfected with an expression vector encoding FLAG-RSPO2furin-CD4TM-GFP. As described in Example 11, FLAG-RSPO2furin-CD4TM-GFP is a chimeric fusion protein enabling cell surface expression of the N-terminal furin-like domains of human RSPO2. FLAG-RSPO2furin-CD4TM-GFP transfected cells were incubated in the presence of anti-RSPO2 antibody 130M23 or humanized anti-RSPO2 antibody […]. Five-fold serial dilutions of each antibody were examined for their ability to bind to the RSPO2 expressing cells. The cells were stained with Phycoerythrin conjugated anti-IgG to reveal bound antibody. The cells were analyzed on a FACSCalibur instrument (BD Biosciences, San Jose, Calif.) and the data was processed using FlowJo software.

T1 sequence (Q2MKA7 34-135): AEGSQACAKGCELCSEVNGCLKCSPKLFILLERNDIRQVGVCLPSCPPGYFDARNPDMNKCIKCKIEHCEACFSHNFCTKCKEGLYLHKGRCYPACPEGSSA
T3 sequence (Q6UXX9 31-146): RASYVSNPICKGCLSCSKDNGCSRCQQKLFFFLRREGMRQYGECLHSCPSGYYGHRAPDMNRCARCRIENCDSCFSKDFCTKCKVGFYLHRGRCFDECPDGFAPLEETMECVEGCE
T2 sequence (Q2MKA7 21-263): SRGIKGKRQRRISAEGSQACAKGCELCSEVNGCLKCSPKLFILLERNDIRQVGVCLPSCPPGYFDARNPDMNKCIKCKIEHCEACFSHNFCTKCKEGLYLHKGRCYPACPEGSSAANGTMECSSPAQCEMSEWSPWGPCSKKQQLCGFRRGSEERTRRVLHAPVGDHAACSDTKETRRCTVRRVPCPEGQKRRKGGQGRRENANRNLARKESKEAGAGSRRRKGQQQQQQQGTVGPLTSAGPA

- binding to RSPO1 (FACS) (human RSPO1 [1]): bound
- blocking of binding of RSPO1 to LGR5 (binding of RSPO1 to LGR5): blocked
- binding to human RSPO1 (FACS) (human RSPO1 [4]): bind
B1: 89M5: anti-RSPO1 monoclonal antibody, hybridoma ATCC PTA-11970; variable regions SEQ ID NO:10 and SEQ ID NO:11 (antibody, V domains shown)
VH: EVQLQQSGPELVKPGASVKISCKTSGYTFTGYTMHWVRQSHGKTLEWIGGINPNNGGTTYNQNFKGKATLTVEKSSTTAYLELRSLTSEDSALYYCARKEFSDGYYFFAYWGQGTLVTVSA
VL: DIVMTQSHKFMSTSVGDRVNITCKASQDVIFAVAWYQQKPGQSPKLLIYWASTRHTGVPDRFTGSVSGTDYTLTISSVQAEDLALYYCQQHYSTPWTFGGGTKLEIK
modifications: 89M5 Heavy chain variable region; 89M5 Light chain variable region
- blocking of RSPO1-induced β-catenin signaling [2]: blocked
- reduction in tumor growth (OV19 ovarian tumor cells): 40%
- effect on tumor growth as single agents [3]: only a minimal effect

- binding to human RSPO2 (FACS) (human RSPO2): bind
B2: h130M23-H1L2: humanized anti-RSPO2 antibody; heavy chain SEQ ID NO:70, light chain SEQ ID NO:71 (antibody)
heavy: EVQLVESGGGLVKPGGSLRLSCAASGFTFSSYAMSWVRQAPGKGLEWVSSISSGGSTYYPDSVKGRFTISRDNAKNSLYLQMNSLRAEDTAVYYCARGGDPGVYNGDYEDAMDYWGQGTTVTVSSASTKGPSVFPLAPCSRSTSESTAALGCLVKDYFPEPVTVSWNSGALTSGVHTFPAVLQSSGLYSLSSVVTVPSSNFGTQTYTCNVDHKPSNTKVDKTVERKCCVECPPCPAPPVAGPSVFLFPPKPKDTLMISRTPEVTCVVVDVSHEDPEVQFNWYVDGVEVHNAKTKPREEQFNSTFRVVSVLTVVHQDWLNGKEYKCKVSNKGLPAPIEKTISKTKGQPREPQVYTLPPSREEMTKNQVSLTCLVKGFYPSDIAVEWESNGQPENNYKTTPPMLDSDGSFFLYSKLTVDKSRWQQGNVFSCSVMHEALHNHYTQKSLSLSPGK
light: DIQMTQSPSSLSASVGDRVTITCKASQDVSSAVAWYQQKPGKAPKLLIYWASTRHTGVPSRFSGSGSGTDFTLTISSVQAEDFATYYCQQHYSTPWTFGQGTKVEIKRTVAAPSVFIFPPSDEQLKSGTASVVCLLNNFYPREAKVQWKVDNALQSGNSQESVTEQDSKDSTYSLSNTLTLSKADYEKHKVYACEVTHQGLSSPVTKSFNRGEC
modifications: h130M23-H1L2 Heavy chain amino acid sequence; h130M23-H1L2 Light chain amino acid sequence
